From CN114907476A (SHANGHAI PHARMACEUTICALS HOLDING CO LTD, dated 2022) come the findings set out here.

Substitutions are numbered along the chain they refer to.

The EC50 is the concentration that produces a half-maximal response. Higher therefore signals weaker potency. The term Kd denotes the equilibrium constant for the complex coming apart. As a reminder, the koff is a measure of how fast the partners let go of each other. The kon is the second-order rate constant of association. Low readings indicate slow association, high ones fast association.

To fix the notation:
T1: 表达于CHOK1细胞表面的人TIGIT (CHOK1/人TIGIT细胞, 吉满生物 GM-C01116) (human, UniProt Q495A1 22-244)
T1 construct: whole, on cells; Purchased cell line; also called CHOK1/hTIGIT
T1 sequence (looked up): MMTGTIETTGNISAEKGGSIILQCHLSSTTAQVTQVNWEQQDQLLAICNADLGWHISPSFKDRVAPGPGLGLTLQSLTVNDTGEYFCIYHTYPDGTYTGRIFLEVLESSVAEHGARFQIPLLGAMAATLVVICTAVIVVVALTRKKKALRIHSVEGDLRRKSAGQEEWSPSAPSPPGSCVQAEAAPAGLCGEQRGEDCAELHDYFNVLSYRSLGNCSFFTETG

T2: SPH-B011-A-Antigen-his蛋白 (人TIGIT) (human, UniProt Q495A1 22-141, limits assumed)
T2 construct: Analyte of the Biacore assay; also called 抗原(人TIGIT); not shown: his tag
T2 sequence (looked up): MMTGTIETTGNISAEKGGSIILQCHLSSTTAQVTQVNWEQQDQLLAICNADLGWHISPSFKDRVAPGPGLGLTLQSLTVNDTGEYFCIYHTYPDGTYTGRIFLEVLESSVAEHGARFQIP

B1: 人源化抗TIGIT抗体A2 (antibody, human IgG1, kappa, V domains shown)
VH: QLQLVQSGAEVKKPGASVKVSCKASGYSFTDYNMNWVRQAPGQSLEWIGVINPNHGTISYNQKFKGRVTMTRDQSTSTAYMELNSLRSEDTAVYYCANNWDVWYFDVWGQGTLVTVSS
VL: DIQMTQSPSSLSASVGDRVTITCRPSENIYSYLAWYQQKPGKAPKLLVYNAKALAEGVPSRFSGSGSGTDFTLTISSLQPEDFATYYCQHHFGAPWTFGQGTKVEIKR
notes: Humanized
B2: 人源化抗TIGIT抗体A3 (antibody, human IgG1, kappa, V domains shown)
VH: B1 VH
VL: B1 VL with K42N, D70Q
notes: Humanized
B3: 人源化抗TIGIT抗体A1 (antibody, human IgG1, kappa, V domains shown)
VH: B1 VH
VL: B1 VL with V48I
notes: Humanized
B4: 人源化抗TIGIT抗体A4 (antibody, human IgG1, kappa, V domains shown)
VH: B1 VH
VL: B1 VL with K42N, A43S, D70Q, Q100G
notes: Humanized
B5: 阳性对照抗体P4 (antibody, human IgG1, kappa, V domains shown)
VH: EVQLQQSGPGLVKPSQTLSLTCAISGDSVSSNSAAWNWIRQSPSRGLEWLGKTYYRFKWYSDYAVSVKGRITINPDTSKNQFSLQLNSVTPEDTAVFYCTRESTTYDLLAGPFDYWGQGTLVTVSS
VL: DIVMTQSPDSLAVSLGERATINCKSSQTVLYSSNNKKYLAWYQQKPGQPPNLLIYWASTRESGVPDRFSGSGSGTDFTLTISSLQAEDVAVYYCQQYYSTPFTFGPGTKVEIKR
notes: Positive control anti-TIGIT antibody
B6: 嵌合抗TIGIT抗体A0 (antibody, human IgG1, kappa, V domains shown)
VH: ELQLQQSGPELVKPGASVKISCKASGYSFTDYNMNWVKQSNGKSLEWIGVINPNHGTISYNQKFKGKATLTVDQSSSTAYMQLNSLTSEDSAVYYCANNWDVWYFDVWGTGTTVTVSS
VL: DIQMTQSPASLSASVGETVTITCRPSENIYSYLAWYRQKQGNSPQLLVYNAKALAEGVPSRFSGSGSGTQFSLKINSLQPEDFGSYYCQHHFGAPWTFGGGTKLEIKR
notes: also called B011-A-142E4C5
B7: 阳性对照抗体P1 (antibody, human IgG1, kappa, V domains shown)
VH: QVQLQESGPGLVKPSETLSLTCTVSGGSVSSGIYYWSWIRQPPGKGLEWIGYIYYSGSTNYNPSLKSRVTISVDTSKNQFSLKLSSVTAADTAVYYCARDYYVSGNYYNVDYYFFGVDVWGQGTTVTVSS
VL: EIVLTQSPATLSLSPGERATLSCRASQSVSSYLAWYQQKPGQAPRLLIYDASNRATGIPARFSGSGSGTDFTLTISSLEPEDFAVYYCQQRSNWPPLFTFGPGTKVDIKR
notes: as for B5

In the first assay the target is T1, 表达于CHOK1细胞表面的人TIGIT (CHOK1/人TIGIT细胞, …). The experiment in a line: flow cytometry on CHOK1/hTIGIT cells, EC50 of MFI. On the technique in general: A flow cytometer gives signals particle by particle.
The molecule B1 came in with an EC50 of 0.312 µg/mL.
Molecule B2 yielded a 50% effective concentration (EC50) of 0.329 µg/mL.
B3: the EC50 was determined as 0.36 µg/mL.
Consider B4, for which it took 0.496 µg/mL to reach a half-maximal effect (EC50).
Same read-out and setting: the value for B5 was 0.214 µg/mL.
Take B6: the 50% effective concentration (EC50) was ~0.139 µg/mL.
Molecule B7 showed an EC50 of 0.264 µg/mL.

A further assay concerns the target Jurkat-hTIGIT-NFAT-CD226细胞上过表达的人TIGIT (human). The experiment in a line: cell-based or functional assay.
B1: the “EC50(μg/ml)of RLU” value was 1.01 µg/mL and the “Max RLU” value is 9210 RLU.
Consider B2, for which the “EC50(μg/ml)of RLU” value was found to be 0.782 µg/mL and the “Max RLU” value was determined as 9370 RLU.
Consider B3, for which the “EC50(μg/ml)of RLU” value is 1.18 µg/mL and the “Max RLU” value was determined as 8950 RLU.
Take B4: the “EC50(μg/ml)of RLU” value was 0.847 µg/mL and the “Max RLU” value was 8810 RLU.
Taken in the same sequence, the figures for B5 were 0.357 µg/mL and 9610 RLU.
For B6, the “EC50(μg/ml)of RLU” value came out at 1.32 µg/mL and the “Max RLU” value came out at 9270 RLU.
On to B7, for which the “EC50(μg/ml)of RLU” value is 0.305 µg/mL and the “Max RLU” value was found to be 10500 RLU.

For a further assay, the target named is T2, SPH-B011-A-Antigen-his蛋白 (人TIGIT). Kind of assay: Biacore, antibody captured on anti-Fc CM5 chip, human TIGIT-his 100nM as analyte, 25℃. For orientation: In SPR one partner is held on a chip, and binding of the other changes the refractive index at the surface.
As for B1, binding was characterised by a dissociation constant (Kd) of 4.3 nM, the koff turned out to be 0.00241 s⁻¹ and the on-rate constant (kon) stood at 560000 M⁻¹ s⁻¹.
With B2, the equilibrium dissociation constant (Kd) stood at 4.66 nM, the koff was determined as 0.00225 s⁻¹ and the on-rate constant (kon) is 483000 M⁻¹ s⁻¹.
Molecule B3 registered a dissociation constant (Kd) of 4.62 nM, a koff of 0.00251 s⁻¹ and a kon of 544000 M⁻¹ s⁻¹.
In turn, B4 displayed a dissociation constant Kd of 4.85 nM, a koff of 0.00257 s⁻¹ and a kon of 529000 M⁻¹ s⁻¹.

For a further assay, the target named is Jurkat-hTIGIT-NFAT-CD226细胞上过表达的人TIGIT (human). The experiment in a line: cell-based or functional assay. The source holds these as a separate data set.
Jurkat-hTIGIT-NFAT-CD226细胞上过表达的人TIGIT (human), sequence (Q495A1 whole entry): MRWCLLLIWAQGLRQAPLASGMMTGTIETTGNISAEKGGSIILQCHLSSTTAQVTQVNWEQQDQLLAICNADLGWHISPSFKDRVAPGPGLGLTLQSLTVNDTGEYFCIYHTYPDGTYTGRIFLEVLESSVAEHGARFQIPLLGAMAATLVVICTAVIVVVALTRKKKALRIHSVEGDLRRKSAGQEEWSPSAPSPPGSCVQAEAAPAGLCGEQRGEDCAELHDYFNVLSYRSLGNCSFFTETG
Consider B5, for which the “EC50(μg/ml)of RLU” value is 0.534 µg/mL and the 最大RLU worked out at 8840 RLU.
On to B6, for which the “EC50(μg/ml)of RLU” value is 0.922 µg/mL and the 最大RLU came out at 8260 RLU.
Take B7: the “EC50(μg/ml)of RLU” value stood at 0.633 µg/mL and the 最大RLU came out at 9080 RLU.

For another assay, the target named is T1, 表达于CHOK1细胞表面的人TIGIT (CHOK1/人TIGIT细胞, …). Kind of assay: flow cytometry competition, inhibition of Biotinylated-CD155 (0.6μg/ml) binding to CHOK1/hTIGIT cells.
Turning to B1, the 最大抑制 turned out to be 99.6%.
Regarding B2, the 最大抑制 stood at 99.6%.
B3 returned a 最大抑制 of 99.3%.
For B4, the 最大抑制 came to 99.5%.
The same measure, in the same setting: the value for B5 was 100%; that for B6 was 99.2%; that for B7 was 100%.

Another assay shares this target. Kind of assay: flow cytometry on CHOK1/hTIGIT cells.
For B1, the 最大MFI amounted to 10600 MFI.
In turn, B2 registered a 最大MFI of 10200 MFI.
Molecule B3 registered a 最大MFI of 10800 MFI.
In the case of B4, the 最大MFI amounted to 10100 MFI.
On the same count and under the same terms, the value for B5 was 10300 MFI; that for B6 was 9890 MFI.
Consider B7, for which the 最大MFI was 13500 MFI.

A further assay shares this target. Kind of assay: flow cytometry competition, EC50 of % inhibition of Biotinylated-CD155 (0.6μg/ml) binding to CHOK1/hTIGIT cells.
Molecule B1 gave an EC50 of 0.406 µg/mL.
As for B2, the EC50 was 0.427 µg/mL. This EC50 and that of the molecule before are within 1.5-fold of each other.
For the molecule B3, a half-maximal effect (EC50) was put at 0.43 µg/mL.
For the molecule B4, the 50% effective concentration (EC50) was determined as 0.27 µg/mL.
Regarding B5, the EC50 was found to be 0.309 µg/mL. The EC50 values of the last two molecules are within 1.5-fold of each other.
B6 registered an EC50 of 0.384 µg/mL.
In turn, B7 came in with an EC50 of 0.306 µg/mL. This EC50 and that of the molecule before are within 1.5-fold of each other.

Another assay has the same target. The experiment in a line: flow cytometry competition, inhibition of Biotinylated-CD155 (0.6μg/ml) binding to CHOK1/human TIGIT cells.
In turn, B5 displayed a 最大抑制 of 100%.
B6 gave a 最大抑制 of 99.8%.
As for B7, the 最大抑制 stood at 99.7%.

Another assay shares this target. Kind of assay: flow cytometry competition, EC50 of % inhibition of Biotinylated-CD155 (0.6μg/ml) binding to CHOK1/human TIGIT cells.
For B5, the EC50 stood at 0.103 µg/mL.
B6 returned a half-maximal effective concentration (EC50) of 0.138 µg/mL.
With B7, the concentration giving a half-maximal response (EC50) was 0.189 µg/mL.
